Test results taken from publication PMC3143262 (Journal of molecular biology, 2011).
Where a chain is given by its changes, count along the chain named. Numbers in names are those of the source.

B1: CD147 Ig0 wild-type (domain or fragment, human, UniProt P35613 22-138, looked up)
chain: AAGFVQAPLSQQRWVGGSVELHCEAVGSPVPEIQWWFEGQGPNDTCSQLWDGARLDRVHIHATYHQHAASTISIDTLVEEDTGTYECRASNDPDRNHLTRAPRVKWVRAQAVVLVLE
B2: CD147 Ig0 C67M (domain or fragment, human, UniProt P35613 22-138, looked up)
chain: B1 chain with C46M
modifications: Selenomethionine labeled for the crystal structure
B3: CD147 Ig0 K126A (domain or fragment, human, UniProt P35613 22-138, looked up)
chain: B1 chain with K105A

Target: the molecule itself
Experiment: SEC

Stoichiometry N, 2:
B1, B2, B3
